The series deals with FasA from Brevibacterium ammoniagenes (multifunctional fatty acid synthase).
Sequence of FasA from Brevibacterium ammoniagenes (multifunctional fatty acid synthase) (chain, as listed by the source): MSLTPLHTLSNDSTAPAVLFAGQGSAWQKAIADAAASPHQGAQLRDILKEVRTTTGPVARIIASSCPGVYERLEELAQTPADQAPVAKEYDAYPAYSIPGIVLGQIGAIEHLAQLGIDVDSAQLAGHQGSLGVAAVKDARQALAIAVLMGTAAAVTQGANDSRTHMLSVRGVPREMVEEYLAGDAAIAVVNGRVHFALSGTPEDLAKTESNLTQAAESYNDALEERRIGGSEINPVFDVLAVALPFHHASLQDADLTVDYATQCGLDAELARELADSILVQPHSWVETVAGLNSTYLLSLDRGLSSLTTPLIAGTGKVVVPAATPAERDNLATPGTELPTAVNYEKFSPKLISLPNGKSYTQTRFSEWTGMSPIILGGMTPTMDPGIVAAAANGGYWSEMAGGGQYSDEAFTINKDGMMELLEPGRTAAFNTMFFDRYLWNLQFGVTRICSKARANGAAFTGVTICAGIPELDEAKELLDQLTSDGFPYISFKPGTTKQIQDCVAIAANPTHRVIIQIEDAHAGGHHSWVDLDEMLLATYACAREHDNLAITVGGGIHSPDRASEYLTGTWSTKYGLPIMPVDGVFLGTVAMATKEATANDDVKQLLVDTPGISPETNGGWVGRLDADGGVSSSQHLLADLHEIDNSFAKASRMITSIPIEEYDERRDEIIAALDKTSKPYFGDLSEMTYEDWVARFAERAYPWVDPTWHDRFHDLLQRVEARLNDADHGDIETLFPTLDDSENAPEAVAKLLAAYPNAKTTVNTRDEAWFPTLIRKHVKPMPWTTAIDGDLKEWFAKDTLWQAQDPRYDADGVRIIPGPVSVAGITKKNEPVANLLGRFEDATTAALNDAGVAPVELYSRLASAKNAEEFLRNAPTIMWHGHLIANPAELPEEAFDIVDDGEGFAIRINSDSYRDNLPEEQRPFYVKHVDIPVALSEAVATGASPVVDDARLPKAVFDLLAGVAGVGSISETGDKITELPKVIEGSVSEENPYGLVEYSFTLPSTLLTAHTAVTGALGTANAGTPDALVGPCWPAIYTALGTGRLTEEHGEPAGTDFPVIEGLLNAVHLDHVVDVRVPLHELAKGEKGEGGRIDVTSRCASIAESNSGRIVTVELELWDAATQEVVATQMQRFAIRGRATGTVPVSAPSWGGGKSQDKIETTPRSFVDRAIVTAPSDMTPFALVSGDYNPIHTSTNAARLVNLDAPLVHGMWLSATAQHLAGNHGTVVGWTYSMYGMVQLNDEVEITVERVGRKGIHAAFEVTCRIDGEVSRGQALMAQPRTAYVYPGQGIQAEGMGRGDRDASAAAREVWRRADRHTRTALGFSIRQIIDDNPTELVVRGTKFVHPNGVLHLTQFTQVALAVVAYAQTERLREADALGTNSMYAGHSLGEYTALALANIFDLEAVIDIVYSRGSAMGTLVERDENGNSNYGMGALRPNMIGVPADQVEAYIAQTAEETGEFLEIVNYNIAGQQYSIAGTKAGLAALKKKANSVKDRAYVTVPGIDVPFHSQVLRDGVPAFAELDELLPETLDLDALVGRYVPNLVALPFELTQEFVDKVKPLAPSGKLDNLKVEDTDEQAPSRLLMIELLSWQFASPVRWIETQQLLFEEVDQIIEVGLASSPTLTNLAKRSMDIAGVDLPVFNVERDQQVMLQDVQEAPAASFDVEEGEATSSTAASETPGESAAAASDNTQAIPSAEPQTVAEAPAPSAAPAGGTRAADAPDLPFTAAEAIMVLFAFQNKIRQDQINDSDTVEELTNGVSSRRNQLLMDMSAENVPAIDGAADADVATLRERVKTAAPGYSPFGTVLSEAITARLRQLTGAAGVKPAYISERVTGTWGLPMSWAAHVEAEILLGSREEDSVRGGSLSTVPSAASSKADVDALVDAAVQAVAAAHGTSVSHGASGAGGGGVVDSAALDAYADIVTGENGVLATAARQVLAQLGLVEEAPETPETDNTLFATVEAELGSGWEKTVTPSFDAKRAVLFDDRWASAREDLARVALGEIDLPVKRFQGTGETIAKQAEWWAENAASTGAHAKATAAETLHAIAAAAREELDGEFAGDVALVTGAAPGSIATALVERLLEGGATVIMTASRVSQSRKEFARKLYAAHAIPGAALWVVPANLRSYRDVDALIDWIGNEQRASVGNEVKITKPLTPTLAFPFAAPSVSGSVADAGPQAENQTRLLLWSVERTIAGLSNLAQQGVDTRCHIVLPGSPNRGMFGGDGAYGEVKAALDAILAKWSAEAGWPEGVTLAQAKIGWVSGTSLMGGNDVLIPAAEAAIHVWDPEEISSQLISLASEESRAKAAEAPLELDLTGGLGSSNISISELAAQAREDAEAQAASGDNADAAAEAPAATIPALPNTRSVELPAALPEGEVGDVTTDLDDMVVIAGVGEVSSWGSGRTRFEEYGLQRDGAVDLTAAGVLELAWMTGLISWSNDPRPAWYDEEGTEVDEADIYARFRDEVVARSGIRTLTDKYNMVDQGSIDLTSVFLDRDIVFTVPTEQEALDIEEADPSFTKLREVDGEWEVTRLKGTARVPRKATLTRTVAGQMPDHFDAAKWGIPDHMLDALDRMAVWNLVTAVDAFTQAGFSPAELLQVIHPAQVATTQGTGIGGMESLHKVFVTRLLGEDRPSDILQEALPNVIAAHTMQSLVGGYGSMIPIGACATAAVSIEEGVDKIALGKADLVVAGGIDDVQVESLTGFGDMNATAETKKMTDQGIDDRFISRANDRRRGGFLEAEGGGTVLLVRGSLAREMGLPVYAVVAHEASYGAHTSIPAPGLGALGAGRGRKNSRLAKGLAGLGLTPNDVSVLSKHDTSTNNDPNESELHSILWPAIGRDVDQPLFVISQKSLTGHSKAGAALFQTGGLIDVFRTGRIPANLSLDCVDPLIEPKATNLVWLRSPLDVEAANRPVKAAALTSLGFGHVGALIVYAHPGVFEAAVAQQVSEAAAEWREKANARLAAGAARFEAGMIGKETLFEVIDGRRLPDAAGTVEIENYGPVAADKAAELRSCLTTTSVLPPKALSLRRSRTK

B1: phosphopantetheine:protein transferase (PPT1) enzyme from B. ammoniagenes, expressed in E. coli as a lacZ fusion protein (enzyme, part only; not given: N-terminal lacZ fusion residues)
chain, part: MLDNREAMTVGVDLVHIPGFAEQLSRPGSTFEQVFSPLERRHAQTRRDAAADATNSSLAGSRTEHLAGRWAAKEAFIKAWSQAIYGKPPVIEPDLVNFAEIEVLPDRWGRVALQLKGEVAAKLQESIDVELALSISHDGDYATAQCLLRYQR
Regarding B1, the “fasA activity (radiochemical assay at 37 C for 15 minutes on partially purified E. coli extracts)” value is “only when the fasA cosmid (FA) and the pSU19/ppt1 (P) construct were both present was there any measurable fasA activity”.

Source of the values: patent US20040172681.
